Measurements as given in patent US20230407373A1 (priority 2020, published 2023).
“Also recorded” adds a separate entry of the source.

B1: FUBP3: host protein, UniProt Q96I24 (protein, UniProt Q96I24 2-572, looked up)
Far upstream element-binding …: AELVQGQSAPVGMKAEGFVDALHRVRQIAAKIDSIPHLNNSTPLVDPSVYGYGVQKRPLDDGVGNQLGALVHQRTVITEEFKVPDKMVGFIIGRGGEQISRIQAESGCKIQIASESSGIPERPCVLTGTPESIEQAKRLLGQIVDRCRNGPGFHNDIDSNSTIQEILIPASKVGLVIGRGGETIKQLQERTGVKMVMIQDGPLPTGADKPLRITGDAFKVQQAREMVLEIIREKDQADFRGVRGDFNSRMGGGSIEVSVPRFAVGIVIGRNGEMIKKIQNDAGVRIQFKPDDGISPERAAQVMGPPDRCQHAAHIISELILTAQERDGFGGLAAARGRGRGRGDWSVGAPGGVQEITYTVPADKCGLVIGKGGENIKSINQQSGAHVELQRNPPPNSDPNLRRFTIRGVPQQIEVARQLIDEKVGGTNLGAPGAFGQSPFSQPPAPPHQNTFPPRSSGCFPNMAAKVNGNPHSTPVSGPPAFLTQGWGSTYQAWQQPTQQVPSQQSQPQSSQPNYSKAWEDYYKKQSHAASAAPQASSPPDYTMAWAEYYRQQVAFYGQTLGQAQAHSQEQ
B2: ZC3HAV1: host protein, UniProt Q7Z2W4 (protein, UniProt Q7Z2W4 2-902, looked up)
Zinc finger CCCH-type …: ADPEVCCFITKILCAHGGRMALDALLQEIALSEPQLCEVLQVAGPDRFVVLETGGEAGITRSVVATTRARVCRRKYCQRPCDNLHLCKLNLLGRCNYSQSERNLCKYSHEVLSEENFKVLKNHELSGLNKEELAVLLLQSDPFFMPEICKSYKGEGRQQICNQQPPCSRLHICDHFTRGNCRFPNCLRSHNLMDRKVLAIMREHGLNPDVVQNIQDICNSKHMQKNPPGPRAPSSHRRNMAYRARSKSRDRFFQGSQEFLASASASAERSCTPSPDQISHRASLEDAPVDDLTRKFTYLGSQDRARPPSGSSKATDLGGTSQAGTSQRFLENGSQEDLLHGNPGSTYLASNSTSAPNWKSLTSWTNDQGARRKTVFSPTLPAARSSLGSLQTPEAVTTRKGTGLLSSDYRIINGKSGTQDIQPGPLFNNNADGVATDITSTRSLNYKSTSSGHREISSPRIQDAGPASRDVQATGRIADDADPRVALVNDSLSDVTSTTSSRVDDHDSEEICLDHLCKGCPLNGSCSKVHFHLPYRWQMLIGKTWTDFEHMETIEKGYCNPGIHLCSVGSYTINFRVMSCDSFPIRRLSTPSSVTKPANSVFTTKWIWYWKNESGTWIQYGEEKDKRKNSNVDSSYLESLYQSCPRGVVPFQAGSRNYELSFQGMIQTNIASKTQKDVIRRPTFVPQWYVQQMKRGPDHQPAKTSSVSLTATFRPQEDFCFLSSKKYKLSEIHHLHPEYVRVSEHFKASMKNFKIEKIKKIENSELLDKFTWKKSQMKEEGKLLFYATSRAYVESICSNNFDSFLHETHENKYGKGIYFAKDAIYSHKNCPYDAKNVVMFVAQVLVGKFTEGNITYTSPPPQFDSCVDTRSNPSVFVIFQKDQVYPQYVIEYTEDKACVIS
B3: CSDE1: host protein, UniProt O75534 (protein, UniProt O75534 1-798, looked up)
Cold shock domain-containing …: MSFDPNLLHNNGHNGYPNGTSAALRETGVIEKLLTSYGFIQCSERQARLFFHCSQYNGNLQDLKVGDDVEFEVSSDRRTGKPIAVKLVKIKQEILPEERMNGQVVCAVPHNLESKSPAAPGQSPTGSVCYERNGEVFYLTYTPEDVEGNVQLETGDKINFVIDNNKHTGAVSARNIMLLKKKQARCQGVVCAMKEAFGFIERGDVVKEIFFHYSEFKGDLETLQPGDDVEFTIKDRNGKEVATDVRLLPQGTVIFEDISIEHFEGTVTKVIPKVPSKNQNDPLPGRIKVDFVIPKELPFGDKDTKSKVTLLEGDHVRFNISTDRRDKLERATNIEVLSNTFQFTNEAREMGVIAAMRDGFGFIKCVDRDVRMFFHFSEILDGNQLHIADEVEFTVVPDMLSAQRNHAIRIKKLPKGTVSFHSHSDHRFLGTVEKEATFSNPKTTSPNKGKEKEAEDGIIAYDDCGVKLTIAFQAKDVEGSTSPQIGDKVEFSISDKQRPGQQVATCVRLLGRNSNSKRLLGYVATLKDNFGFIETANHDKEIFFHYSEFSGDVDSLELGDMVEYSLSKGKGNKVSAEKVNKTHSVNGITEEADPTIYSGKVIRPLRSVDPTQTEYQGMIEIVEEGDMKGEVYPFGIVGMANKGDCLQKGESVKFQLCVLGQNAQTMAYNITPLRRATVECVKDQFGFINYEVGDSKKLFFHVKEVQDGIELQAGDEVEFSVILNQRTGKCSACNVWRVCEGPKAVAAPRPDRLVNRLKNITLDDASAPRLMVLRQPRGPDNSMGFGAERKIRQAGVID
B4: HDLBP: host protein, UniProt Q00341 (protein, UniProt Q00341 2-1268, looked up)
Vigilin: SSVAVLTQESFAEHRSGLVPQQIKVATLNSEEESDPPTYKDAFPPLPEKAACLESAQEPAGAWGNKIRPIKASVITQVFHVPLEERKYKDMNQFGEGEQAKICLEIMQRTGAHLELSLAKDQGLSIMVSGKLDAVMKARKDIVARLQTQASATVAIPKEHHRFVIGKNGEKLQDLELKTATKIQIPRPDDPSNQIKITGTKEGIEKARHEVLLISAEQDKRAVERLEVEKAFHPFIAGPYNRLVGEIMQETGTRINIPPPSVNRTEIVFTGEKEQLAQAVARIKKIYEEKKKKTTTIAVEVKKSQHKYVIGPKGNSLQEILERTGVSVEIPPSDSISETVILRGEPEKLGQALTEVYAKANSFTVSSVAAPSWLHRFIIGKKGQNLAKITQQMPKVHIEFTEGEDKITLEGPTEDVNVAQEQIEGMVKDLINRMDYVEINIDHKFHRHLIGKSGANINRIKDQYKVSVRIPPDSEKSNLIRIEGDPQGVQQAKRELLELASRMENERTKDLIIEQRFHRTIIGQKGERIREIRDKFPEVIINFPDPAQKSDIVQLRGPKNEVEKCTKYMQKMVADLVENSYSISVPIFKQFHKNIIGKGGANIKKIREESNTKIDLPAENSNSETIIITGKRANCEAARSRILSIQKDLANIAEVEVSIPAKLHNSLIGTKGRLIRSIMEECGGVHIHFPVEGSGSDTVVIRGPSSDVEKAKKQLLHLAEEKQTKSFTVDIRAKPEYHKFLIGKGGGKIRKVRDSTGARVIFPAAEDKDQDLITIIGKEDAVREAQKELEALIQNLDNVVEDSMLVDPKHHRHFVIRRGQVLREIAEEYGGVMVSFPRSGTQSDKVTLKGAKDCVEAAKKRIQEIIEDLEAQVTLECAIPQKFHRSVMGPKGSRIQQITRDFSVQIKFPDREENAVHSTEPVVQENGDEAGEGREAKDCDPGSPRRCDIIIISGRKEKCEAAKEALEALVPVTIEVEVPFDLHRYVIGQKGSGIRKMMDEFEVNIHVPAPELQSDIIAITGLAANLDRAKAGLLERVKELQAEQEDRALRSFKLSVTVDPKYHPKIIGRKGAVITQIRLEHDVNIQFPDKDDGNQPQDQITITGYEKNTEAARDAILRIVGELEQMVSEDVPLDHRVHARIIGARGKAIRKIMDEFKVDIRFPQSGAPDPNCVTVTGLPENVEEAIDHILNLEEEYLADVVDSEALQVYMKPPAHEEAKAPSRGFVVRDAPWTASSSEKAPDMSSSEEFPSFGAQVAPKTLPWGPKR

Each molecule was assayed on SARS-CoV-2 gRNA. Conditions: not given.
Type: binding

Molecule	enrichment in SARS-CoV-2 Probe I RNP capture
B1	enriched; also recorded: found in the SARS-CoV-2 experiments
B2	enriched; also recorded: found in the SARS-CoV-2 experiments
B3	enriched

Same assay, conditions: […]; LC-MS/MS; Probe I sample (first 199 lines of Table 2)

Molecule	target (unweighted spectral count of the protein in the RNP capture)
B1	94
B2	31
B3	37
B4	23

Each molecule was assayed on SARS-CoV-2 gRNA and sgRNAs. Conditions: not given.
Type: binding

Molecule	enrichment in SARS-CoV-2 Probe II RNP capture
B1	enriched; also recorded: found in the SARS-CoV-2 experiments
B2	enriched; also recorded: found in the SARS-CoV-2 experiments
B3	enriched

Same assay, conditions: Probe II capture; […]; LC-MS/MS LFQ

Molecule	target (unweighted spectral count in RNP capture)
B1	173
B2	48
B3	92

Same assay, conditions: no-probe control pull-down, used as background for Probe II

Molecule	background (unweighted spectral count in control)
B1	1
B2	1
B3	1

Each molecule was assayed on gRNA of HCoV-OC43. Conditions: infected HCT-8 cells.
Type: binding

Molecule	enrichment / detection in HCoV-OC43 Probe I RNP capture
B1	enriched

Same assay, conditions: type g_36_m; HCoV-OC43-infected HCT-8 cells, 36 hpi, Probe I

Molecule	target (spectral count)
B1	49
B4	26

Same assay, conditions: type g_36_m; uninfected-probe control, 36 hpi, Probe I

Molecule	background (spectral count)
B1	9
B4	3

Same assay, conditions: type n_48_v: 48 hours post-infection, infected cells, OC43 Probe I; unweighted spectral count

Molecule	target (spectral count, OC43 Probe I RNP capture)
B1	47
B2	17
B3	20
B4	16

Same assay, conditions: type n_48_v: 48 hours post-infection, no-probe control on infected cells

Molecule	background (spectral count, no-probe control)
B1	3
B2	1
B3	1
B4	2

These molecules were tested on HCoV-OC43 gRNA and sgRNA. Conditions: 36 hpi; type n_36_v; tested against no-probe control; FDR<10%.
Type: binding

Molecule	target (unweighted spectral count, OC43 Probe II capture)
B1	42
B2	18

Same assay, conditions: OC43 Probe II, 12 hpi (type n_12_v), infected cells; tested against no-probe control

Molecule	target (unweighted spectral count)
B1	11
B2	8
B4	11

Same assay, conditions: OC43 Probe II, 24 hpi (type n_24_v), infected cells; tested against no-probe control

Molecule	target (unweighted spectral count)
B1	27
B2	13
B3	18
B4	24

Same assay, conditions: infected HCT-8 cells

Molecule	enrichment / detection in HCoV-OC43 Probe II RNP capture
B1	enriched

Same assay, conditions: type n_48_v; 48 hpi; OC43 Probe II capture on infected cells

Molecule	target (unweighted spectral count, OC43 Probe II)
B1	71
B2	22
B3	21
B4	50

Same assay, conditions: type n_48_v; 48 hpi; no-probe control on infected cells

Molecule	background (unweighted spectral count, no-probe control)
B1	3
B2	1
B3	1
B4	2

Same assay, conditions: type s_36_m; HCoV-OC43-infected HCT-8 cells, 36 hpi, Probe II

Molecule	target (spectral count)
B1	42
B2	18
B3	24
B4	36

Same assay, conditions: type s_36_m; uninfected-probe control, 36 hpi, Probe II

Molecule	background (spectral count)
B1	6
B2	1
B3	3
B4	1

Each molecule was assayed on SARS-CoV-2. Conditions: not given.
Type: cell-based

Molecule	antiviral or proviral role of the host protein indicated by knockdown
B2	may act as antiviral factors
B3	proviral effects

Same assay, conditions: Calu-3 cells, 50 nM siRNA, RT-qPCR, relative to siNC

Molecule	change in viral RNA levels (gRNA, N sgRNA) after siRNA depletion
B1	increased the viral RNA levels
B2	increased viral RNAs
B4	increased the viral RNA levels
